T1: PUF4 RNA-binding domain (Saccharomyces cerevisiae, UniProt P25339 537-888)
T1 sequence: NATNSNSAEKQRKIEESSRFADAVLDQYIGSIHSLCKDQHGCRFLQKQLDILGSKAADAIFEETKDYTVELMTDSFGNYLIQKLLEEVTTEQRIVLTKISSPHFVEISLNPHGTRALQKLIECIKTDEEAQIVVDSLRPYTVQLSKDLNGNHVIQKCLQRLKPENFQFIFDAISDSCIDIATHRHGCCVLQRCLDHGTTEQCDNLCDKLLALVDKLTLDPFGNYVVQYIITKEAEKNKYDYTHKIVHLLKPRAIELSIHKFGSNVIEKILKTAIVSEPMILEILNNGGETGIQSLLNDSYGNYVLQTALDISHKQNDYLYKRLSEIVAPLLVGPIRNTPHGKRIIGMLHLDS


Target: T1, PUF4 RNA-binding domain
Assay: Mg; RNA-MaP; 20 mM Na-HEPES pH 7.4, 30 mM KOAc, 0.75 mM MgCl2, 0.1% Tween-20, 5% glycerol, 0.1 mg/mL BSA, 2 mM DTT; 25 C; 0.0125-409.6 nM protein
Conditions: tags: N-His6-TEV cleaved; C-SNAP kept, Cy3B-labelled; label: tethered on chip by stalled RNA polymerase

| Binder | Kd [nM] |
| --- | --- |
| UCUCUUUAUAUUAUUGUCUCUU (ssRNA) [Ib_S1_P5E.1_K5.1_C5.1_H5.1_[G2A]_A5.1_F5.1_[A10G]_T5.1] | 242 |
| UCUCUUCGUAUUAUUCUCUCUU (ssRNA) [Ib_S1_P5E.1_K5.1_C5.1_H5.1_[T1C]_A5.1_F5.1_[A10C]_T5.1] | > 2300 |
| Id_ii_S2_P4E.2_K4.1_C4.2_[C-2A]_[T-1C]_H4.1_A4.1_F4.1_T4.2_[G10T] (ssRNA) RNA: UUUGAUUAAUAUGAUAUCGUUCUUUCUACUGUAUAUUAUUUUCUUUCUCGAUAUCAUAUUAAUCUUU | 0.296 |
| Id_ii_S2_P4E.2_K4.1_C4.2_[C-2A]_[T-1A]_H4.1_A4.1_F4.1_T4.2_[G10A]_[T11G] (ssRNA) RNA: UUUGAUUAAUAUGAUAUCGUUCUUUCUAAUGUAUAUUAAGUUCUUUCUCGAUAUCAUAUUAAUCUUU | 8.86 |
| Id_ii_S2_P4E.2_K4.1_C4.2_[T-1G]_H4.1_A4.1_F4.1_T4.2_[G10T] (ssRNA) RNA: UUUGAUUAAUAUGAUAUCGUUCUUUCUCGUGUAUAUUAUUUUCUUUCUCGAUAUCAUAUUAAUCUUU | 0.195 |
| Id_ii_S2_P4E.2_K4.1_C4.2_[C-2A]_[T-1A]_H4.1_A4.1_F4.1_T4.2_[G10A]_[T11C] (ssRNA) RNA: UUUGAUUAAUAUGAUAUCGUUCUUUCUAAUGUAUAUUAACUUCUUUCUCGAUAUCAUAUUAAUCUUU | 1.96 |
| Id_ii_S2_P4E.2_K4.1_C4.2_[T-1G]_H4.1_A4.1_F4.1_T4.2_[G10A]_[T11G] (ssRNA) RNA: UUUGAUUAAUAUGAUAUCGUUCUUUCUCGUGUAUAUUAAGUUCUUUCUCGAUAUCAUAUUAAUCUUU | 1.7 |
| Id_ii_S2_P4E.2_K4.1_C4.2_[C-2A]_[T-1A]_H4.1_A4.1_F4.1_T4.2_[G10C]_[T11C] (ssRNA) RNA: UUUGAUUAAUAUGAUAUCGUUCUUUCUAAUGUAUAUUACCUUCUUUCUCGAUAUCAUAUUAAUCUUU | 2.15 |
| Id_ii_S2_P4E.2_K4.1_C4.2_[T-1A]_H4.1_A4.1_F4.1_T4.2 (ssRNA) RNA: UUUGAUUAAUAUGAUAUCGUUCUUUCUCAUGUAUAUUAGUUUCUUUCUCGAUAUCAUAUUAAUCUUU | 0.425 |
| Id_ii_S2_P4E.2_K4.1_C4.2_H4.1_A4.1_F4.1_T4.2_[G10A] (ssRNA) RNA: UUUGAUUAAUAUGAUAUCGUUCUUUCUCUUGUAUAUUAAUUUCUUUCUCGAUAUCAUAUUAAUCUUU | 0.317 |
| Id_ii_S2_P4E.2_K4.1_C4.2_[T-1A]_H4.1_A4.1_F4.1_T4.2_[G10A] (ssRNA) RNA: UUUGAUUAAUAUGAUAUCGUUCUUUCUCAUGUAUAUUAAUUUCUUUCUCGAUAUCAUAUUAAUCUUU | 0.506 |
| Id_ii_S2_P4E.2_K4.1_C4.2_[C-2A]_[T-1A]_H4.1_A4.1_F4.1_T4.2_[G10A] (ssRNA) RNA: UUUGAUUAAUAUGAUAUCGUUCUUUCUAAUGUAUAUUAAUUUCUUUCUCGAUAUCAUAUUAAUCUUU | 1.93 |
| Id_ii_S2_P4E.2_K4.1_C4.2_[C-2A]_[T-1C]_H4.1_A4.1_F4.1_T4.2_[G10A] (ssRNA) RNA: UUUGAUUAAUAUGAUAUCGUUCUUUCUACUGUAUAUUAAUUUCUUUCUCGAUAUCAUAUUAAUCUUU | 0.442 |
| Id_ii_S2_P4E.2_K4.1_C4.2_[T-1C]_H4.1_A4.1_F4.1_T4.2 (ssRNA) RNA: UUUGAUUAAUAUGAUAUCGUUCUUUCUCCUGUAUAUUAGUUUCUUUCUCGAUAUCAUAUUAAUCUUU | 0.166 |
| Id_ii_S2_P4E.2_K4.1_C4.2_H4.1_A4.1_F4.1_T4.2_[G10C] (ssRNA) RNA: UUUGAUUAAUAUGAUAUCGUUCUUUCUCUUGUAUAUUACUUUCUUUCUCGAUAUCAUAUUAAUCUUU | 0.572 |
| Id_ii_S2_P4E.2_K4.1_C4.2_[C-2A]_H4.1_A4.1_F4.1_T4.2_[G10A]_[T11A] (ssRNA) RNA: UUUGAUUAAUAUGAUAUCGUUCUUUCUAUUGUAUAUUAAAUUCUUUCUCGAUAUCAUAUUAAUCUUU | 0.939 |
| Id_ii_S2_P4E.2_K4.1_C4.2_[T-1G]_H4.1_A4.1_F4.1_T4.2_[G10T]_[T11C] (ssRNA) RNA: UUUGAUUAAUAUGAUAUCGUUCUUUCUCGUGUAUAUUAUCUUCUUUCUCGAUAUCAUAUUAAUCUUU | 0.286 |
| Id_ii_S2_P4E.2_K4.1_C4.2_[T-1A]_H4.1_A4.1_F4.1_T4.2_[G10C] (ssRNA) RNA: UUUGAUUAAUAUGAUAUCGUUCUUUCUCAUGUAUAUUACUUUCUUUCUCGAUAUCAUAUUAAUCUUU | 0.716 |
| Id_ii_S2_P4E.2_K4.1_C4.2_[T-1A]_H4.1_A4.1_F4.1_T4.2_[G10A]_[T11A] (ssRNA) RNA: UUUGAUUAAUAUGAUAUCGUUCUUUCUCAUGUAUAUUAAAUUCUUUCUCGAUAUCAUAUUAAUCUUU | 0.937 |
| Id_ii_S2_P4E.2_K4.1_C4.2_[C-2A]_H4.1_A4.1_F4.1_T4.2_[G10T]_[T11C] (ssRNA) RNA: UUUGAUUAAUAUGAUAUCGUUCUUUCUAUUGUAUAUUAUCUUCUUUCUCGAUAUCAUAUUAAUCUUU | 0.401 |
| Id_ii_S2_P4E.2_K4.1_C4.2_H4.1_A4.1_F4.1_T4.2_[G10A]_[T11A] (ssRNA) RNA: UUUGAUUAAUAUGAUAUCGUUCUUUCUCUUGUAUAUUAAAUUCUUUCUCGAUAUCAUAUUAAUCUUU | 0.537 |
| Ie_S2_P3E.2_K3.1_C3.2_H3.1_A3.1_F3.1_[+7T]_T3.2 (ssRNA) RNA: UUUGAUUAAUAUGAUAUCGUUCUUUCUCUUGUAUAUUAUAUUCUUUCUCGAUAUCAUAUUAAUCUUU | 0.308 |
| Id_ii_S2_P4E.2_K4.1_C4.2_[C-2A]_H4.1_A4.1_F4.1_T4.2_[G10C] (ssRNA) RNA: UUUGAUUAAUAUGAUAUCGUUCUUUCUAUUGUAUAUUACUUUCUUUCUCGAUAUCAUAUUAAUCUUU | 1.11 |

| Binder | Kd [nM] |
| --- | --- |
| Id_ii_S2_P4E.2_K4.1_C4.2_[C-2A]_H4.1_A4.1_F4.1_T4.2_[G10T]_[T11G] (ssRNA) RNA: UUUGAUUAAUAUGAUAUCGUUCUUUCUAUUGUAUAUUAUGUUCUUUCUCGAUAUCAUAUUAAUCUUU | 0.705 |
| Id_ii_S2_P4E.2_K4.1_C4.2_[T-1C]_H4.1_A4.1_F4.1_T4.2_[G10C] (ssRNA) RNA: UUUGAUUAAUAUGAUAUCGUUCUUUCUCCUGUAUAUUACUUUCUUUCUCGAUAUCAUAUUAAUCUUU | 0.482 |
| Id_ii_S2_P4E.2_K4.1_C4.2_[T-1C]_H4.1_A4.1_F4.1_T4.2_[G10A]_[T11G] (ssRNA) RNA: UUUGAUUAAUAUGAUAUCGUUCUUUCUCCUGUAUAUUAAGUUCUUUCUCGAUAUCAUAUUAAUCUUU | 1.63 |
| Id_ii_S2_P4E.2_K4.1_C4.2_[T-1C]_H4.1_A4.1_F4.1_T4.2_[G10T]_[T11A] (ssRNA) RNA: UUUGAUUAAUAUGAUAUCGUUCUUUCUCCUGUAUAUUAUAUUCUUUCUCGAUAUCAUAUUAAUCUUU | 0.342 |
| Id_ii_S2_P4E.2_K4.1_C4.2_H4.1_A4.1_F4.1_T4.2_[G10C]_[T11C] (ssRNA) RNA: UUUGAUUAAUAUGAUAUCGUUCUUUCUCUUGUAUAUUACCUUCUUUCUCGAUAUCAUAUUAAUCUUU | 0.362 |
| Id_ii_S2_P4E.2_K4.1_C4.2_[C-2A]_[T-1C]_H4.1_A4.1_F4.1_T4.2_[G10A]_[T11A] (ssRNA) RNA: UUUGAUUAAUAUGAUAUCGUUCUUUCUACUGUAUAUUAAAUUCUUUCUCGAUAUCAUAUUAAUCUUU | 0.702 |
| Id_ii_S2_P4E.2_K4.1_C4.2_[T-1G]_H4.1_A4.1_F4.1_T4.2_[G10A] (ssRNA) RNA: UUUGAUUAAUAUGAUAUCGUUCUUUCUCGUGUAUAUUAAUUUCUUUCUCGAUAUCAUAUUAAUCUUU | 0.316 |
| Id_ii_S2_P4E.2_K4.1_C4.2_[T-1G]_H4.1_A4.1_F4.1_T4.2 (ssRNA) RNA: UUUGAUUAAUAUGAUAUCGUUCUUUCUCGUGUAUAUUAGUUUCUUUCUCGAUAUCAUAUUAAUCUUU | 0.296 |
| Id_ii_S2_P4E.2_K4.1_C4.2_[T-1C]_H4.1_A4.1_F4.1_T4.2_[G10T] (ssRNA) RNA: UUUGAUUAAUAUGAUAUCGUUCUUUCUCCUGUAUAUUAUUUUCUUUCUCGAUAUCAUAUUAAUCUUU | 0.15 |
| Id_ii_S2_P4E.2_K4.1_C4.2_[C-2A]_[T-1A]_H4.1_A4.1_F4.1_T4.2_[G10T]_[T11C] (ssRNA) RNA: UUUGAUUAAUAUGAUAUCGUUCUUUCUAAUGUAUAUUAUCUUCUUUCUCGAUAUCAUAUUAAUCUUU | 1.1 |
| Id_ii_S2_P4E.2_K4.1_C4.2_[T-1G]_H4.1_A4.1_F4.1_T4.2_[G10A]_[T11A] (ssRNA) RNA: UUUGAUUAAUAUGAUAUCGUUCUUUCUCGUGUAUAUUAAAUUCUUUCUCGAUAUCAUAUUAAUCUUU | 0.489 |
| Id_ii_S2_P4E.2_K4.1_C4.2_[T-1A]_H4.1_A4.1_F4.1_T4.2_[G10C]_[T11C] (ssRNA) RNA: UUUGAUUAAUAUGAUAUCGUUCUUUCUCAUGUAUAUUACCUUCUUUCUCGAUAUCAUAUUAAUCUUU | 0.746 |
| Id_ii_S2_P4E.2_K4.1_C4.2_[C-2A]_H4.1_A4.1_F4.1_T4.2_[G10A] (ssRNA) RNA: UUUGAUUAAUAUGAUAUCGUUCUUUCUAUUGUAUAUUAAUUUCUUUCUCGAUAUCAUAUUAAUCUUU | 0.782 |
| Id_ii_S2_P4E.3_K4.2_C4.2_[C-2G]_[T-1G]_H4.2_A4.1_F4.1_T4.2_[G10A] (ssRNA) RNA: UUUGAUUAAUAUGAUAUCGUUCUUUCUGGUAUAUAUUAAUUUCUUUCUCGAUAUCAUAUUAAUCUUU | 57 |
| Id_ii_S2_P4E.2_K4.1_C4.2_[C-2A]_[T-1A]_H4.1_A4.1_F4.1_T4.2_[G10A]_[T11A] (ssRNA) RNA: UUUGAUUAAUAUGAUAUCGUUCUUUCUAAUGUAUAUUAAAUUCUUUCUCGAUAUCAUAUUAAUCUUU | 3.89 |
| Id_ii_S2_P4E.2_K4.1_C4.2_[C-2A]_[T-1C]_H4.1_A4.1_F4.1_T4.2_[G10A]_[T11C] (ssRNA) RNA: UUUGAUUAAUAUGAUAUCGUUCUUUCUACUGUAUAUUAACUUCUUUCUCGAUAUCAUAUUAAUCUUU | 0.678 |
| Id_ii_S2_P4E.2_K4.1_C4.2_H4.1_A4.1_F4.1_T4.2_[G10A]_[T11C] (ssRNA) RNA: UUUGAUUAAUAUGAUAUCGUUCUUUCUCUUGUAUAUUAACUUCUUUCUCGAUAUCAUAUUAAUCUUU | 0.566 |
| Id_ii_S2_P4E.2_K4.1_C4.2_[T-1C]_H4.1_A4.1_F4.1_T4.2_[G10A]_[T11A] (ssRNA) RNA: UUUGAUUAAUAUGAUAUCGUUCUUUCUCCUGUAUAUUAAAUUCUUUCUCGAUAUCAUAUUAAUCUUU | 0.324 |
| Id_ii_S2_P4E.2_K4.1_C4.2_H4.1_A4.1_F4.1_T4.2_[T11C] (ssRNA) RNA: UUUGAUUAAUAUGAUAUCGUUCUUUCUCUUGUAUAUUAGCUUCUUUCUCGAUAUCAUAUUAAUCUUU | 0.275 |
| Id_ii_S2_P4E.2_K4.1_C4.2_[T-1A]_H4.1_A4.1_F4.1_T4.2_[G10A]_[T11G] (ssRNA) RNA: UUUGAUUAAUAUGAUAUCGUUCUUUCUCAUGUAUAUUAAGUUCUUUCUCGAUAUCAUAUUAAUCUUU | 2.6 |
| UCUCUUAGUAUUAUUUUCUCUU (ssRNA) [Ib_S1_P5E.1_K5.1_C5.1_H5.1_[T1A]_A5.1_F5.1_[A10T]_T5.1] | > 2300 |
| UCUCUUUCUAUUAUUGUCUCUU (ssRNA) [Ib_S1_P5E.1_K5.1_C5.1_H5.1_[G2C]_A5.1_F5.1_[A10G]_T5.1] | > 2300 |

From PMC9352680, “A comprehensive thermodynamic model for RNA binding by the Saccharomyces cerevisiae Pumilio protein PUF4”
